Data reported in paper doi:10.1101/2025.11.05.686565 (bioRxiv, 2025).

Biological target: the molecule itself
Experiment: cryo-EM structure

B1: full-length, strep-tagged human Wdr37 (natural protein, UniProt Q9Y2I8 1-494, looked up)
chain: MPTESASCSTARQTKQKRKSHSLSIRRTNSSEQERTGLPRDMLEGQDSKLPSSVRSTLLELFGQIEREFENLYIENLELRREIDTLNERLAAEGQAIDGAELSKGQLKTKASHSTSQLSQKLKTTYKASTSKIVSSFKTTTSRAACQLVKEYIGHRDGIWDVSVAKTQPVVLGTASADHTALLWSIETGKCLVKYAGHVGSVNSIKFHPSEQLALTASGDQTAHIWRYAVQLPTPQPVADTSISGEDEVECSDKDEPDLDGDVSSDCPTIRVPLTSLKSHQGVVIASDWLVGGKQAVTASWDRTANLYDVETSELVHSLTGHDQELTHCCTHPTQRLVVTSSRDTTFRLWDFRDPSIHSVNVFQGHTDTVTSAVFTVGDNVVSGSDDRTVKVWDLKNMRSPIATIRTDSAINRINVCVGQKIIALPHDNRQVRLFDMSGVRLARLPRSSRQGHRRMVCCSAWSEDHPVCNLFTCGFDRQAIGWNINIPALLQEK
- stoichiometry N: 2
